Test results published in the supplement of paper PMC10724198.
± gives the standard deviation of the averaged measurements.

Tests used:
[1] = system: Saccharomyces cerevisiae; assay: protein stability index of tFT-peptide fusion (C-terminal peptide) (PSI (0-1 scale)); higher = more stable (slower turnover)
Procedure: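 MPS profiling in S. cerevisiae of the tFT-X12 degron library: putative degron peptides plus stable controls, 12 aa, fused to the C-terminus of a sfGFP-mCherry timer. Cells are FACS-sorted into 8 mCherry/sfGFP bins and deep-sequenced. PSI runs from 0 (unstable) to 1 (stable). Backgrounds are wild type, das1Δ and doa10Δ at 30 °C, and wild type, das1Δ, cdc34-1 and cdc53-1 at 37 °C; 2-3 technical replicates each.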

[2] = system: Saccharomyces cerevisiae; assay: as above; details: genetic background: wild type; temperature: 30 C
[3] = genetic background: cdc34-1, temperature: 37 C
[4] = genetic background: cdc53-1, temperature: 37 C
[5] = genetic background: das1 deletion, temperature: 30 C
[6] = genetic background: das1 deletion, temperature: 37 C
[7] = genetic background: doa10 deletion, temperature: 30 C
[8] = genetic background: wild type, temperature: 30 C
[9] = genetic background: wild type, temperature: 37 C
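Note: PSI is a weighted mean of sequencing reads over stability bins, variants kept only with over 10 reads, mCherry proximal and sfGFP distal, peptide attached via GGGS linker.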

Sequence | protein stability index [1, 3] | protein stability index [1, 4] | protein stability index [1, 5] | protein stability index [1, 6] | protein stability index [1, 7] | protein stability index [1, 8] | protein stability index [1, 9] | protein stability index [2]
VHNIDLFVVCYI | 0.433 ± 0.025 | 0.443 ± 0.014 | 0.251 ± 0.047 | 0.482 ± 0.0094 | 0.222 ± 0.0048 | 0.258 ± 0.027 | 0.451 ± 0.015 | 0.346 ± 0.0067
VIAFFSVLKRYV | 0.641 ± 0.0088 | 0.704 ± 0.011 | 0.58 ± 0.037 | 0.712 ± 0.0078 | 0.199 ± 0.0083 | 0.241 ± 0.0073 | 0.465 ± 0.0052 | 0.421 ± 0.016
VKSAVLLFFLVT | 0.357 ± 0.0084 | 0.483 ± 0.019 | 0.359 ± 0.031 | 0.537 ± 0.0055 | 0.178 ± 0.016 | 0.199 ± 0.021 | 0.312 ± 0.01 | 0.257 ± 0.0044
VLFFLVTSSVYF | 0.124 ± 0.036 | 0.263 ± 0.03 | 0.201 ± 0.031 | 0.37 ± 0.0049 | 0.159 ± 0.0068 | 0.187 ± 0.0095 | 0.327 ± 0.0083 | 0.269 ± 0.04
VLPCSLVPLRLH | 0.66 ± 0.015 | 0.704 ± 0.029 | 0.642 ± 0.012 | 0.702 ± 0.011 | 0.349 ± 0.013 | 0.374 ± 0.026 | 0.548 ± 0.0098 | 0.445 ± 0.014
VLPLRCSWAAQG | 0.693 ± 0.007 | 0.7521 ± 0.005 | 0.639 ± 0.026 | 0.747 ± 0.027 | 0.246 ± 0.019 | 0.298 ± 0.013 | 0.538 ± 0.044 | 0.39 ± 0.035
VMLIRVSRGIKC | 0.359 ± 0.044 | 0.463 ± 0.13 | 0.293 ± 0.024 | 0.4846 ± 0.0047 | 0.242 ± 0.0097 | 0.29 ± 0.038 | 0.473 ± 0.0067 | 0.41 ± 0.0097
VMLVISRLLLLF | 0.465 ± 0.058 | 0.523 ± 0.0094 | 0.455 ± 0.033 | 0.613 ± 0.018 | 0.111 ± 0.0019 | 0.105 ± 0.017 | 0.168 ± 0.018 | 0.174 ± 0.021
VPGPSPPRFTQR | 0.7134 ± 0.0016 | 0.762 ± 0.016 | 0.6584 ± 0.0019 | 0.741 ± 0.0094 | 0.644 ± 0.028 | 0.656 ± 0.011 | 0.692 ± 0.025 | 0.559 ± 0.1
VPVWHTVKLYCF | 0.342 ± 0.0081 | 0.439 ± 0.0077 | 0.345 ± 0.038 | 0.4934 ± 0.0021 | 0.073 ± 0.00079 | 0.088 ± 0.017 | 0.0851 ± 0.018 | 0.159 ± 0.061
VPWSKIAARLII | 0.6593 ± 0.0029 | 0.706 ± 0.011 | 0.618 ± 0.02 | 0.734 ± 0.022 | 0.227 ± 0.015 | 0.315 ± 0.054 | 0.5015 ± 0.0036 | 0.446 ± 0.068
VRMMYSVQVWCG | 0.0466 ± 0.011 | 0.138 ± 0.03 | 0.0633 ± 0.029 | 0.165 ± 0.012 | 0.02927 ± 0.00015 | 0.0222 ± 0.0046 | 0.0439 ± 0.0023 | 0.0363 ± 0.036
VRVWLLACASKG | 0.3332 ± 0.00082 | 0.423 ± 0.026 | 0.236 ± 0.0066 | 0.378 ± 0.019 | 0.228 ± 0.037 | 0.24 ± 0.015 | 0.3609 ± 0.0016 | 0.281 ± 0.014
VSDLYLSLVRVV | 0.59 ± 0.032 | 0.593 ± 0.011 | 0.46 ± 0.034 | 0.604 ± 0.009 | 0.256 ± 0.0031 | 0.31 ± 0.029 | 0.492 ± 0.017 | 0.45 ± 0.078
VSGVLRSMVRLQ | 0.641 ± 0.044 | 0.7477 ± 0.0057 | 0.66 ± 0.034 | 0.736 ± 0.032 | 0.266 ± 0.017 | 0.324 ± 0.031 | 0.58 ± 0.03 | 0.453 ± 0.011
